Experimental findings from patent US10072073 are described below.

In assay [1] the target is human class I histocompatibility antigens (HLA-A,B,C) (human). Nature of the assay: indirect immunofluorescence flow cytometry on Colo205 cells; mouse IgG at 5 µg/ml [d].
The target is the same in assay [2]. The experiment in a line: indirect immunofluorescence flow cytometry on MB-MDA-231 breast tumour cells, mAb 1 µg/ml. In general terms: In flow cytometry, cells or beads pass a laser one at a time.
For assay [3] the target is unchanged. Nature of the assay: indirect immunofluorescence flow cytometry on DU4475 breast tumour cells, mAb 1 µg/ml.
Assay [4] shares this target. The experiment in a line: indirect immunofluorescence flow cytometry on H69 lung tumour cells, mAb 1 µg/ml.
For assay [5] the target is unchanged. The experiment in a line: indirect immunofluorescence flow cytometry on MKN45 gastric tumour cells, mAb 1 µg/ml.
For assay [6] the target is unchanged. Nature of the assay: indirect immunofluorescence flow cytometry on C170 colorectal tumour cells, mAb 1 µg/ml.
For assay [7] the target is unchanged. The experiment in a line: indirect immunofluorescence flow cytometry on OVCAR3 ovarian tumour cells, mAb 1 µg/ml.
For assay [8] the target is unchanged. The experiment in a line: indirect immunofluorescence flow cytometry on Colo201 colorectal tumour cells, mAb 1 µg/ml.
The target is the same in assay [9]. The experiment in a line: indirect immunofluorescence flow cytometry on MCF7 breast tumour cells, mAb 1 µg/ml.
For assay [10] the target is unchanged. The experiment in a line: indirect immunofluorescence flow cytometry on ST16 gastric tumour cells, mAb 1 µg/ml.
The target is the same in assay [11]. The experiment in a line: indirect immunofluorescence flow cytometry on Colo205 colorectal tumour cells, mAb 1 µg/ml.
Assay [12] shares this target. Nature of the assay: indirect immunofluorescence flow cytometry on AGS gastric tumour cells, mAb 1 µg/ml.
For assay [13] the target is unchanged. The experiment in a line: indirect immunofluorescence flow cytometry on OVCAR4 ovarian tumour cells, mAb 1 µg/ml.
The target is the same in assay [14]. The experiment in a line: indirect immunofluorescence flow cytometry on OAW42 ovarian tumour cells, mAb 1 µg/ml.
The target is the same in assay [15]. The experiment in a line: indirect immunofluorescence flow cytometry on OVCA433 ovarian tumour cells, mAb 1 µg/ml.
For assay [16] the target is unchanged. The experiment in a line: indirect immunofluorescence flow cytometry on HT29 colorectal tumour cells, mAb 1 µg/ml.
Assay [17] has the same target. The experiment in a line: indirect immunofluorescence flow cytometry on Colo205 cells; W6/32 at 5 µg/ml [c].
Assay [18] shares this target. Nature of the assay: indirect immunofluorescence flow cytometry on Panc1 pancreatic tumour cells, mAb 1 µg/ml.
The target is the same in assay [19]. Nature of the assay: indirect immunofluorescence flow cytometry on ASPC1 pancreatic tumour cells, mAb 1 µg/ml.
The target in assay [20] is CD55 (UniProt P08174). The experiment in a line: indirect immunofluorescence flow cytometry on Panc1 pancreatic tumour cells, mAb 5 µg/ml.
The target of assay [21] is CD55 (UniProt P08174). Nature of the assay: indirect immunofluorescence flow cytometry on OVCAR3 ovarian tumour cells, mAb 5 µg/ml.
For assay [22], the target named is CD55 (UniProt P08174). Nature of the assay: indirect immunofluorescence flow cytometry on C170 colorectal tumour cells, mAb 5 µg/ml.
Assay [23] addresses CD55 (UniProt P08174). Nature of the assay: indirect immunofluorescence flow cytometry on MCF7 breast tumour cells, mAb 5 µg/ml.
Assay [24] concerns the target CD55 (UniProt P08174). The experiment in a line: indirect immunofluorescence flow cytometry on MKN45 gastric tumour cells, mAb 5 µg/ml.
Assay [25] deals with CD55 (UniProt P08174). Nature of the assay: indirect immunofluorescence flow cytometry on OVCA433 ovarian tumour cells, mAb 5 µg/ml.
For assay [26], the target named is CD55 (UniProt P08174). The experiment in a line: indirect immunofluorescence flow cytometry on Colo201 colorectal tumour cells, mAb 5 µg/ml.
Assay [27] deals with CD55 (UniProt P08174). Nature of the assay: indirect immunofluorescence flow cytometry on MB-MDA-231 breast tumour cells, mAb 5 µg/ml.
The target of assay [28] is CD55 (UniProt P08174). Nature of the assay: indirect immunofluorescence flow cytometry on OVCAR4 ovarian tumour cells, mAb 5 µg/ml.
Assay [29] has as its target CD55 (UniProt P08174). The experiment in a line: indirect immunofluorescence flow cytometry on ST16 gastric tumour cells, mAb 5 µg/ml.
Assay [30] has as its target CD55 (UniProt P08174). The experiment in a line: indirect immunofluorescence flow cytometry on Colo205 colorectal tumour cells, mAb 5 µg/ml.
In assay [31] the target is CD55 (UniProt P08174). Nature of the assay: indirect immunofluorescence flow cytometry on H69 lung tumour cells, mAb 5 µg/ml.
The target in assay [32] is CD55 (UniProt P08174). The experiment in a line: indirect immunofluorescence flow cytometry on HT29 colorectal tumour cells, mAb 5 µg/ml.
Assay [33] has as its target CD55 (UniProt P08174). Nature of the assay: indirect immunofluorescence flow cytometry on OAW42 ovarian tumour cells, mAb 5 µg/ml.
Assay [34] concerns the target CD55 (UniProt P08174). The experiment in a line: indirect immunofluorescence flow cytometry on AGS gastric tumour cells, mAb 5 µg/ml.
Assay [35] has as its target CD55 (UniProt P08174). The experiment in a line: indirect immunofluorescence flow cytometry on ASPC1 pancreatic tumour cells, mAb 5 µg/ml.
The target in another assay is Polyvalent Le^a-HSA. The experiment in a line: SPR (Biacore X), polyvalent Le^a-HSA coupled to CM5 chip, mAb in flow. (Surface plasmon resonance follows binding to a sensor surface in real time, without labels.)

UniProt P08174, sequence (P08174 35-353 limits assumed): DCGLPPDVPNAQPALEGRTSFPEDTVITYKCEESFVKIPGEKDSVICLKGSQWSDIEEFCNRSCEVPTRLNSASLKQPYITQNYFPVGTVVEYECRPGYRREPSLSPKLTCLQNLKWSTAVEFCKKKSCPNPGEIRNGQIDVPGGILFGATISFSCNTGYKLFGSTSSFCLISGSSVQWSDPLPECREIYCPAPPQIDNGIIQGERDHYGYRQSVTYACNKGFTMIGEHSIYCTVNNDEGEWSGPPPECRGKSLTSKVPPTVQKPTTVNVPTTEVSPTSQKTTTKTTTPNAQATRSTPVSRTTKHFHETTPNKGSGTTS

On to IgG Isotype control (antibody), for which the Gm in assay [1] was 25.4.
For W6/32 (antibody), the Gm value in [2] stood at 758 Gm; in assay [3], 1360 Gm; in assay [4] it was 109 Gm; in assay [5] it was 15.4 Gm; in assay [6], 16.5 Gm; in assay [7] it was 633 Gm. The Gm value in [8] turned out to be 603 Gm; in assay [9], 515 Gm; in assay [10], 33.5 Gm; in assay [11], 1300 Gm; in assay [12], 1560 Gm; in [13], 16.4 Gm. Further, the Gm value in assay [14] is 318 Gm; in [15], 6790 Gm; in assay [16] it was 1160 Gm; in [18], 20.1 Gm; in assay [19], 1780 Gm. For the same molecule, the Gm in assay [17] came to 2600.
Turning to 791T/36 (antibody), the Gm value was 472 Gm in the assay with CD55 [20]; 412 Gm with CD55 [21]; 858 Gm with CD55 [22]; 461 Gm with CD55 [23]; 231 Gm in the assay with CD55 [24]; 686 Gm in the assay with CD55 [25]. Also, the Gm value with CD55 [26] is 22.3 Gm; in the assay with CD55 [27], 1160 Gm; with CD55 [28] it was 328 Gm; with CD55 [29], 903 Gm; with CD55 [30], 44.4 Gm; with CD55 [31] it was 28.1 Gm. Moreover, the Gm value in the assay with CD55 [32] stood at 916 Gm; with CD55 [33], 401 Gm; with CD55 [34], 1880 Gm; with CD55 [35], 7010 Gm.

B1: FG88.2 mAb (antibody, V domains shown)
VH: EVKLEESGGGLVQPGGSMKLSCAASGFTFSDAWMNWVRQSPEKGLEWVAEIRSKVINPAIYYAESVKERFTILRDDSKSSVYLQMNSLRAEDTGIYYCSRSTMITTRDPSRYFDVWGAGTTVTVSS
VL: DIQMTQSPTSLSASVGETVTITCRTSENIHNFLTWYQQKQGKSPQVLVYNAKTLPDGVPSRFSGSGSGTQYSLKINSLQPEDFGTYYCQHFWSSPWTFGGGTKLEIKR
B1: in the assay with Polyvalent Le^a-HSA, the dissociation constant Kd came to 0.63 nM, the koff was found to be 0.000118 s⁻¹ and the on-rate constant (kon) is 190000 M⁻¹ s⁻¹.

B2: FG88.7 mAb (antibody, V domains shown)
VH: EVKLEESGGGLVQPGGSMKLSCVASGFTFSDAWMNWVRQSPEKGLEWVAEIRSKAINPAIYYAESVKGRFTILRDDSKSSVYLQMNSLRAEDTGIYYCSRSTMITTRDPSRYFDVWGAGTTVTVSS
VL: DIQMTQSPTSLSASVGETVTITCRTSENIHNFLTWYQQKQGKSPQVLVYNAKTLPDGVPSRFSGSGSETQYSLKINSLQPEDFGTYYCQHFWSSPWTFGGGTKLEIKR
B2: in the assay with Polyvalent Le^a-HSA, the Kd amounted to 0.34 nM, the koff came out at 5.8e-05 s⁻¹ and the kon came out at 170000 M⁻¹ s⁻¹.

The Kd is a measure of binding affinity in units of concentration. One may read the koff as the rate constant with which the complex falls apart. The kon is the second-order rate constant of association. Higher therefore signals fast association.
